Each block holds one molecule with its values, some of them ahead of it. Primed or numbered codes have the meaning given here. Where no end group is shown, it is not given here. [ ]: non-standard residue; d: D form. pS = N[C@@H](COP(=O)(O)O)C(=O)O; FITC′ = not defined here
Legend:
[1] = molecular target: T1, 14-3-3 epsilon (14-3-3ε, YWHAE) (Mus musculus, UniProt P62259); assay: ITC with purified protein; supported by CETSA/ITDRF-CETSA in macrophage lysates and FP displacement of p-TFEB peptide (IC50 […]); format: binding
T1 construct: full-length mouse 14-3-3ε, His-tagged, from Sf9 cells
T1 sequence (P62259 1-255): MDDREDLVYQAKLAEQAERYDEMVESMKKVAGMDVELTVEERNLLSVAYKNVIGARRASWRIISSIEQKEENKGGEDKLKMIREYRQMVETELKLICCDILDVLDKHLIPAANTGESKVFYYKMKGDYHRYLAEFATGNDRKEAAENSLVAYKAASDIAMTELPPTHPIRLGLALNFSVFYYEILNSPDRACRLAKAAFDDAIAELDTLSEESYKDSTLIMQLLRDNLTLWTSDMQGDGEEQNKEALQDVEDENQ

[2] = molecular target: T2, His-14-3-3ε (full-length mouse 14-3-3ε, purified) (mouse, UniProt P62259 1-255); assay: fluorescence polarisation; direct binding: His-14-3-3ε serially diluted (1-4000 nM) against FITC-labelled peptide (10 nM solution); 25 mM HEPES pH 7.5, 100 mM NaCl, 1 mg/ml BSA, 0.05% CHAPS; 60 min at 25 °C; details: both partners purified
T2 construct: 14-3-3 epsilon, mouse, full length; also called 14-3-3 epsilon; 14-3-3ɛ; source: Sf9 (Bac-to-Bac baculovirus), purified (Ni-NTA), at least 70% pure
T2 sequence (looked up): T1 sequence (P62259 1-255)

Molecule: O=C1C[C@@H](c2ccc(O)cc2)Oc2cc(O)cc(O)c21 [NGN, naringenin]
Kd [1]: 30600 ± 7990 nM

Kd [2]: 9.68 nM
B1: phosphorylated TFEB peptide (p-TFEB peptide, LVGVTSSpSCPADLTQ) with C-terminal FITC (peptide)
peptide: LVGVTSS[pS]CPADLTQ-{FITC′}
notes: also called p-TFEB-FITC; source: synthetic peptide

Kd [2]: 2.4 nM
B2: control phosphor-peptide (p-control peptide, MARSHpSYPAKKK) with C-terminal FITC (peptide)
peptide: MARSH[pS]YPAKKK-{FITC′}
notes: control phosphopeptide with the conventional 14-3-3 motif RSXpSXP; source: synthetic peptide

Source: article PMC8885854, “Targeting macrophage TFEB-14-3-3 epsilon Interface by naringenin inhibits abdominal aortic aneurysm” (Cell Discovery, 2022)
